In patent publication US7595158B2, “Bcl2L12 polypeptide activators and inhibitors” (Dana-Farber Cancer Institute, Inc., priority 2003, dated 2009):

T1: caspase-9 (Homo sapiens, UniProt P55211)
T1 construct: endogenous in cells; host or cells: 293T
T1 sequence (P55211 1-416): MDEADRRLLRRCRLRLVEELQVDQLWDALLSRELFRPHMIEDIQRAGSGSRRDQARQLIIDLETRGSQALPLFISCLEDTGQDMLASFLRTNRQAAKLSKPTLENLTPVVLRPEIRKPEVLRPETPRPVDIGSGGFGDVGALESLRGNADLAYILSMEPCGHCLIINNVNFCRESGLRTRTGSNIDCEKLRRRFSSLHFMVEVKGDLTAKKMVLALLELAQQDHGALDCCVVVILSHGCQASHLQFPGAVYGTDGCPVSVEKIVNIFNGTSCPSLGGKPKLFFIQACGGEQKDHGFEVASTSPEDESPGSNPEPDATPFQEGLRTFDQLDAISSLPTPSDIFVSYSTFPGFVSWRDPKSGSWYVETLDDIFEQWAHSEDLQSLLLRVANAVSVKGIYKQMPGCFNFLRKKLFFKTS


Key:
[1] = system: Ink4a/Arf deficient astrocytes; experiment: DNA fragmentation (sub-G1, FACS) in Ink4a/Arf deficient astrocytes after apoptotic stimuli; assay type: cell-based, mouse; conditions: for DNA fragmentation: 500 nM STS, pBabe about 22 percent
Procedure: After STS treatment, the cells were analyzed for apoptosis by assessing annexin V binding and DNA fragmentation using a FACS based analysis.
In a separate experiment, Ink4a/Arf deficient astrocytes ectopically expressing Bcl2L12-V5 polypeptide or containing an empty vector as control were treated with 0, 50, 100, or 1000 nM of STS. After a 24 hour-incubation, DNA fragmentation was measured using FACS-based quantification of sub-G1 DNA content.
In another experiment, Ink4a/Arf deficient astrocytes ectopically expressing Bcl2L12-V5 polypeptide or containing an empty vector as control were treated with 0, 2, 4, 8, 16, or 32 μM camptothecin (CPT) for 20 hours. After the 20 hour incubation, DNA fragmentation was determined by FACS-based quantification of sub-G1 peaks. Expression of the Bcl2L12 polypeptide conferred resistance to CPT-stimulated apoptosis.
Ink4a/Arf deficient astrocytes ectopically expressing Bcl2L12-V5 polypeptide or containing an empty vector as control were treated with TNFα in the presence of 1 μg/mL cycloheximide for 24 hours. After the 24 hour incubation, DNA fragmentation was measured using FACS-based quantification of sub-G1 DNA content.
Ink4a/Arf deficient astrocytes ectopically expressing Bcl2L12-V5 polypeptide or containing an empty vector as control were treated with 0, 10, 50, and 100 Gray (Gy) of γ radiation. After 24 hours, DNA fragmentation was measured. Ectopic expression of a Bcl2L12 polypeptide protects INK4a/Arf deficient astrocytes from γ-irradiation-induced apoptosis (FIG. 5C).

caspase-9 = biological target: T1, caspase-9; experiment: Caspase-9 in vitro cleavage and LEHDase activity assay with 293T cells; assay type: cell-based; conditions: for caspase-9 activity: V5 tagged constructs, vector only about 420 RFUs
Source text: To determine if Bcl2L12 polypeptides could-regulate-the activity of caspase-9, a cell-free system was used in which exogenously added dATP and cytochrome c induced the activation of [^35S] labeled in vitro translated caspase-9. […] To confirm the inhibitory effect of Bcl2L12 polypeptides on caspase-9 maturation, 293T cells ectopically expressing Bcl2L12-V5 polypeptides where either subjected to an in vitro cleavage assay or to an activity assay using the caspase-9 specific fluorogenic peptide LEHD.
In addition, vectors encoding V5 tagged wild-type human Bcl2L12 polypeptide (WT; human amino acid sequence 1-334) and three V5 tagged truncation mutants of human Bcl2L12 (Bcl2L12-ΔBH2 polypeptide, human amino acid sequence 1-310; Bcl2L12-ΔBH2ΔP-r polypeptide, human amino acid sequence 1-267; and Bcl2L12-ΔBH2ΔP-rΔIHD polypeptide, human amino acid sequence 1-167) were made (FIG. 4A). These vectors expressed the appropriately sized polypeptides when translated in vitro or when expressed in 293T cells.

cytochrome c release = experiment: Cytochrome c release in STS-treated astrocytes; assay type: cell-based
Procedure: To determine whether Bcl2L12 polypeptides inhibit the apoptogenic activity of mitochondria, cytochrome c release in STS-treated astrocytes over-expressing Bcl2L12-V5 polypeptides was assessed and compared to astrocytes transfected with a LacZ control vector. An anti-tubulin immunoblot was performed as a loading control. Suboptimal concentrations of digitonin were used to allow for selective permeabilization of the plasma membrane, but not of the intracellular membranes. […] This is consistent with the inability of Bcl2L12-V5 polypeptides to localize to mitochondria.

Row | Molecule | resistance to anti-Fas, TRAIL, etoposide, and carboplatin mediated apoptosis [1] | DNA fragmentation [1] | protection from γ-irradiation-induced apoptosis (DNA fragmentation) ([1]; 10, 50, 100 Gy, 24 hours) | protection from STS-induced apoptosis (DNA fragmentation) ([1]; 50, 100, or 1000 nM STS, 24 hours) | protection from TNFα-mediated apoptosis (DNA fragmentation) ([1]; TNFα with 1 μg/mL cycloheximide, 24 hours) | maximum percent DNA fragmentation ([1]; camptothecin up to 32 μM, 20 hours, pBabe greater than 60 percent) | LEHDase activity (caspase-9; 293T cells, control vector about 800 RFUs) | caspase-9 activity (caspase-9) | processing of caspase-9 into p37 and p35 (caspase-9; in vitro cleavage assay, 293T cells, vs vector only) | cytochrome c release (cytochrome c release)
1 | Bcl2L12-V5: Bcl2L12 polypeptide having the V5 epitope tag, ectopically expressed from pBabe-Bcl2L12-V5 vector; human amino acid sequence 1-334 (protein, left off: small tags and cut ends) MGRPAGLFPPLCPFLGFRPEACWERHMQIERAPSVPPFLRWAGYRPGPVRRRGKVELIKFVRVQWRRPQVEWRRRRWGPGPGASMAGSEELGLREDTLRVLAAFLRRGEAAGSPVPTPPRSPAQEEPTDFLSRLRRCLPCSLGRGAAPSESPRPCSLPIRPCYGLEPGPATPDFYALVAQRLEQLVQEQLKSPPSPELQGPPSTEKEAILRRLVALLEEEAEVINQKLASDPALRSKLVRLSSDSFARLVELFCSRDDSSRPSRACPGPPPPSPEPLARLALAMELSRRVAGLGGTLAGLSVEHVHSFTPWIQAHGGWEGILAVSPVDLNLPLD | complete resistance | about 2% | protects | protected astrocytes from STS-induced apoptosis | significant protection | 35 to 45% | about 260 RFUs | about 145 RFUs | reduced processing of caspase-9 | did not block cytochrome c release
2 | Bcl2L12-V5-ΔBH2: V5 tagged mutant lacking amino acid residues 311-334 (BH2 domain) of human Bcl2L12; sequence 1-310 (protein, left off: small tags and cut ends) MGRPAGLFPPLCPFLGFRPEACWERHMQIERAPSVPPFLRWAGYRPGPVRRRGKVELIKFVRVQWRRPQVEWRRRRWGPGPGASMAGSEELGLREDTLRVLAAFLRRGEAAGSPVPTPPRSPAQEEPTDFLSRLRRCLPCSLGRGAAPSESPRPCSLPIRPCYGLEPGPATPDFYALVAQRLEQLVQEQLKSPPSPELQGPPSTEKEAILRRLVALLEEEAEVINQKLASDPALRSKLVRLSSDSFARLVELFCSRDDSSRPSRACPGPPPPSPEPLARLALAMELSRRVAGLGGTLAGLSVEHVHSFTP | – | about 7% | – | – | – | – | – | about 160 RFUs | – | exhibited cytochrome c release
